From patent publication US20210301011A1, “COMPOSITION FOR PROPHYLAXIS OR TREATMENT OF IL-8 RELATED DISEASES” (CHUGAI SEIYAKU KABUSHIKI KAISHA, priority 2016, published 2021)
Entries after “also recorded” stand apart in the source; their conditions may differ.

Legend:
[1] = tested on: adenomyosis lesions; test: Adenomyosis lesions in surgically-induced endometriosis monkey models; format: in vivo, cynomolgus monkeys; conditions: one case per group, compared to vehicle group
Text: After the final laparoscopic observation six months after the start of antibody administration in surgically-induced endometriosis monkey models, the uteri collected during autopsy were fixed with 10% neutral buffered formalin and HE-stained for observation. Endometrial tissues analogous to those of adenomyosis were strongly seen in the uterus in one case of the vehicle group as well as in one case of the antibody administration group. […] Thus, the monkeys were considered as being a human adenomyosis complication model, and the endometrial tissues in the myometria of these single cases were compared.

[2] = target: T1, human FcγRIIIa (Homo sapiens, UniProt P08637); test: Binding to soluble FcγR (BIACORE T200); conditions: 20° C., HBS-EP+
T1 construct: the soluble forms of FcγRIa and FcγRIIIa in human and cynomolgus monkey; His tag; made in house
T1 sequence (P08637 17-208 limits assumed): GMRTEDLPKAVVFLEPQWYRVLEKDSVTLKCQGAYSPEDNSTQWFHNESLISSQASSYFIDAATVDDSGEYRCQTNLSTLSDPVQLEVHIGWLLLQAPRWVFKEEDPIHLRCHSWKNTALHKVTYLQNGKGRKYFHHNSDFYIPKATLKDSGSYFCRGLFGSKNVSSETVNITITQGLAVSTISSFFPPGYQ
Method: (§1) Soluble FcγRIa and FcγRIIIa in both human and cynomolgus monkey were produced in the form of His-tagged molecules by methods known to those of ordinary skill in the art. […] Next, soluble FcγRIa or FcγRIIIa was injected with a running buffer (used as a reference solution), and was made to interact with the antibodies captured onto the sensor chip. HBS-EP+(GE Healthcare) was used as the running buffer, and HBS-EP+ was also used to dilute the soluble FcγRIa or FcγRIIIa. […] All measurements were carried out at 20° C.

[3] = tested on: cynomolgus monkey FcγRIa; test: Binding to soluble FcγR (BIACORE T200); conditions: 20° C., HBS-EP+
Method: as §1

[4] = target: T2, cynomolgus monkey FcγRIIIa (Macaca fascicularis, UniProt Q8SPW2); test: Binding to soluble FcγR (BIACORE T200); conditions: 20° C., HBS-EP+
T2 construct: the soluble forms of FcγRIa and FcγRIIIa in human and cynomolgus monkey; His tag; made in house
T2 sequence (Q8SPW2 17-208 limits assumed): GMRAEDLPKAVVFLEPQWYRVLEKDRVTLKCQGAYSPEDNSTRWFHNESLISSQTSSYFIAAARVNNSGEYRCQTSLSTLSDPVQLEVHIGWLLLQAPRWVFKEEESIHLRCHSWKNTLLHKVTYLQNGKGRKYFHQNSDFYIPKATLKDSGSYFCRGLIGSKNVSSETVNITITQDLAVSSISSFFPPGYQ
Method: as §1

[5] = target: T3, human FcγRIa (Homo sapiens, UniProt P12314); test: Binding to soluble FcγR (BIACORE T200); conditions: 20° C., HBS-EP+
T3 construct: the soluble forms of FcγRIa and FcγRIIIa in human and cynomolgus monkey; His tag; made in house
T3 sequence (P12314 16-292 limits assumed): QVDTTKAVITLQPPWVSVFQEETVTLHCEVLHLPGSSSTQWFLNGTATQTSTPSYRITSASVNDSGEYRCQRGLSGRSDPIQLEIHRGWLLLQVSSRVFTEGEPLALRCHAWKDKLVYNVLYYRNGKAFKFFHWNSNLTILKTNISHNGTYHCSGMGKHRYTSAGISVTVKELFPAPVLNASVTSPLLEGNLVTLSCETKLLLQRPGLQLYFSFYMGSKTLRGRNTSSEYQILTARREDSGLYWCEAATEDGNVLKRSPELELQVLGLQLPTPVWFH
Method: as §1

[6] = tested on: endometriosis lesions; format: in vivo, cynomolgus monkeys
Text: Female cynomolgus monkeys of 8 to 14 years of age with regular sexual cycle (provided by the Tsukuba Primate Research Center at the National Institutes of Biomedical Innovation, Health and Nutrition) were laparotomized under anesthesia during the period corresponding to the luteal phase. The uterine corpus was removed by dissecting in a V shape. Then, the uterine corpus was cut into 5 to 10 mm cubes while leaving the smooth muscle layer of the uterus, and one and two pieces were transplanted onto the right abdominal wall and left abdominal wall (cranial and caudal sides), respectively, in such a manner that the endometrium part is in contact with the peritoneum by suturing with an absorbable suture and formed the transplant. After excision, the uterus was sutured with absorbable suture. Then, the remaining endometrial tissues were finely cut and suspended in 5 ml of 2 ng/ml Hepatocyte Growth Factor solution (R&D systems), and this was seeded in the peritoneal cavity for transplantation, followed by closure of the abdomen. Anesthesia was performed using balanced anesthesia of ketamine/xylazine (mixed at an adequate ratio of about 2:1); however, anesthesia was maintained with isoflurane depending on the maintenance period of anesthesia. The body temperature was maintained and controlled during surgery using a heating pad and the condition was monitored electrocardiographically. The antagonist Antisedan (at roughly the same amount as that of xylazine) and antibiotic cephradine were administered at the time of awakening after surgery. The pain reliever Zalban was administered for two days after surgery, and the monkeys were observed regularly every day to confirm the absence of post-surgical abnormalities. In laparoscopic observation, anesthesia and post-surgical monitoring were also performed in the same way.
Laparoscopic observation was carried out four months, nine months (3 months after administration), and 12 months (6 months after administration) following the surgical induction of endometriosis described above, and the pathological conditions of endometriosis were assessed as follows.
The abdomen was incised in the median line under anesthesia, and laparoscopic observation was performed by inserting a trocar and then introducing a laparoscope. The laparoscope was connected to a video system (KARL STORZ) and a monitor. The monitor was used for intraperitoneal observation, and the video system was used for recording. Then, the peritoneal cavity was filled with carbon dioxide gas using Intra-abdominal Insufflation Unit (OLYMPUS) to expand the abdomen, and graduated bars and forceps were inserted from the ventral portion. The size of the lesion was measured using the graduated bar or graduated forceps.
The sizes (width, height, and depth) of nodular lesions formed by suturing the endometrial tissues were measured and the volumes were calculated based on: width (mm)×height (mm)×depth (mm). The lesions and adhesion formed by seeding endometrial tissues after fine cutting were assessed for the site, area, and depth of adhesion and the size of lesion by laparoscopic observation based on modified r-AFS score modified for monkeys from the r-AFS score for clinical use.
1. The item on adhesion to the vesicouterine pouch was added, because in the monkey model, the frequency of adhesion to the urinary bladder is higher than in humans. The method for assessing adhesion to the urinary bladder was the same scoring as that used for adhesion to the Douglas' pouch. 2. Since monkey's body and organ sizes are smaller than those of humans, the criteria of lesion size scoring were altered to: <3 mm, 3-10 mm, and >10 mm
The grouping was performed in two separate times. After randomization based on the mean volume of nodular lesions and the number of measurable lesions in each individual, eventually, six individuals were assigned to vehicle group and seven individuals were assigned to the antibody H1009/L395-F1974m-administered group. […]

B1: H1009/L395-F1974m: H1009-F1974m (SEQ ID NO:36) heavy chain, L395-kOMT light chain; the anti-IL-8 antibody of Table 29 (antibody)
heavy: QVQLVESGGGLVQPGGSLRLSCAASGFTFSDYYLSWVRQAPGKGLEWVGLIRNKDNYHTPEYSASVKGRFTISRDDSKNSLYLTMSDLKTEDTAVYYCARENHRYDVELAYWGQGTLVTVSSASTKGPSVFPLAPSSKSTSGGTAALGCLVKDYFPEPVTVSWNSGALTSGVHTFPAVLQSSGLYSLSSVVTVPSSSLGTQTYICNVNHKPSNTKVDKKVEPKSCDKTHTCPPCPAPELRRGPSVFLFPPKPKDTLMISRTPEVTCVVVDVSHEDPEVKFNWYVDGVEVHNAKTKPREEQYNSTYRVVSVLTVLHQDWLNGKEYKCKVSNKGLPSSIEKTISKAKGQPREPQVYTLPPSREEMTKNQVSLTCLVKGFYPSDIAVEWESNGQPENNYKTTPPVLDSDGSFFLYSKLTVDKSRWQQGNVFSCSVLHEALHAHTTRKELSLSP
light: DIQMTQSPSSLSASVGDRVTITCRASEIIYSYLAWYQQKPGKAPKLLIYKAKTHADGVPSRFSGSGSGTDFTFTISSLQPEDIATYYCKHHFGFPRTFGQGTKVEIKRTVAAPSVFIFPPSDEQLKSGTASVVCLLNNFYPREAKVQWKVDNALQSGNSQESVTEQDSKDSTYSLSSTLTLSKADYEKHKVYACEVTHQGLSSPVTKSFNRGEC
**Q.** Which results are given for B1?
**A.** histology of adenomyosis lesions (HE staining) [1]: atrophy of endometrial epithelia in the adenomyosis lesions as well as reduction and atrophy of stromal cells were observed; also recorded: Atrophy of endometrial epithelium, and atrophy and reduction of stromal cells were observed; binding to soluble human FcγRIIIa [2]: not to bind to any of the FcγRs; binding to soluble cynomolgus monkey FcγRIa [3]: not to bind to any of the FcγRs; binding to soluble cynomolgus monkey FcγRIIIa [4]: not to bind to any of the FcγRs; binding to soluble human FcγRIa [5]: not to bind to any of the FcγRs; frequency of nodular lesions of type A: proliferative, ≥500 mm3 ([6]; 10 mg/kg i.v. q4w, 6 months): 0%; frequency of nodular lesions of type B: proliferative, <500 mm^3 ([6]; 10 mg/kg i.v. q4w, 6 months): 8%; frequency of nodular lesions of type C: no change ([6]; 10 mg/kg i.v. q4w, 6 months): 33%; frequency of nodular lesions of type D: decreased ([6]; 10 mg/kg i.v. q4w, 6 months): 58%; nodular lesions of type A: proliferative, ≥500 mm3 (lesions/total lesions) ([6]; 10 mg/kg i.v. q4w, 6 months): (0/12); nodular lesions of type B: proliferative, <500 mm^3 (lesions/total lesions) ([6]; 10 mg/kg i.v. q4w, 6 months): (1/12); nodular lesions of type C: no change (lesions/total lesions) ([6]; 10 mg/kg i.v. q4w, 6 months): (4/12); nodular lesions of type D: decreased (lesions/total lesions) ([6]; 10 mg/kg i.v. q4w, 6 months): (7/12); change of size r-AFS score ([6]; after vs before administration, compared to vehicle group): tended to decrease; change of total r-AFS score ([6]; after vs before administration, compared to vehicle group, p=0.0070): clearly decreased as compared to the vehicle group; change of adhesion score (adhesion r-AFS score) ([6]; after vs before administration, compared to vehicle group, p=0.0096): clearly decreased as compared to the vehicle group; frequency of deep lesions (endometriosis gland ducts invaded up to the muscle layer of abdominal wall) ([6]; anti-antibody-positive individuals excluded, vehicle 5/18 lesions): 1/11; hemosiderin observed (lesions/total) ([6]; antibody administration group, vehicle 9/16): 4/17; hemosiderin observed (percent of lesions) ([6]; antibody administration group, vehicle 56%): 24%; total modified r-AFS score before and after administration ([6]; scores recorded by the practitioner during laparoscopic surgery, P=0.875): the score did not change
